Measurements published in FireProtDB (doi:10.1073/pnas.1507829112).
Where “and” joins values, the source holds several entries; their conditions need not be identical. Equal entries are not always repeated.

B1: G133D, Q6VS32 (parent)
chain: CSSGGGGVAADIGAGLADALTAPLDHKDKSLQSLTLDQSVRKNEKLKLAAQGAEKTYGNGDSLNTGKLKNDKVSRFDFIRQIEVDGQLITLESGEFQIYKQDHSAVVALQIEKINNPDKIDSLINQRSFLVSGLGGEHTAFNQLPSGKAEYHGKAFSSDDPNGRLHYSIDFTKKQGYGRIEHLKTPEQNVELASAELKADEKSHAVILGDTRYGGEEKGTYHLALFGDRAQEIAGSATVKIREKVHEIGIAGKQ

Variants of: B1
Conditions: Neisseria meningitidis; pH 7; Thermal; DSC; PBS; whole UniProt chain shown

| Variant | unfolding enthalpy (calorimetric) |
| --- | --- |
| G133D | 96.8 kcal/mol and 96.1 kcal/mol |
| L130R G133D | 56.3 kcal/mol and 94 kcal/mol |
